From article PMC10881042

Tests used:
[1] = target: PKA type I regulatory subunit RIα, in H295R adrenal cells (human (endogenous in H295R)) (UniProt P10644)
[2] = target: PKA type II regulatory subunit RIIα, in H295R adrenal cells (UniProt P13861)
Sequence of UniProt P13861 (P13861 whole entry, stated change not applied): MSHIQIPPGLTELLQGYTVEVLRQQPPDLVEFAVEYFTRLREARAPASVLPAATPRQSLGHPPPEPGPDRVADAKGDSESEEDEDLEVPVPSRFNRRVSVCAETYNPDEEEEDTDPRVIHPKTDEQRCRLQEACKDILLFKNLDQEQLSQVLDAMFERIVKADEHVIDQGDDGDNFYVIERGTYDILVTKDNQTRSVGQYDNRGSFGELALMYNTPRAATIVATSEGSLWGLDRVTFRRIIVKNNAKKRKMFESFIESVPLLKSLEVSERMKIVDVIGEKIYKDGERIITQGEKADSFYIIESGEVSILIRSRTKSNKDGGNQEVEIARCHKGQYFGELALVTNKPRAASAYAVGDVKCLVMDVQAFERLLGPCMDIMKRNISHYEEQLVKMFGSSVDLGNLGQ

Sequence of UniProt P10644 (P10644 whole entry, stated change not applied): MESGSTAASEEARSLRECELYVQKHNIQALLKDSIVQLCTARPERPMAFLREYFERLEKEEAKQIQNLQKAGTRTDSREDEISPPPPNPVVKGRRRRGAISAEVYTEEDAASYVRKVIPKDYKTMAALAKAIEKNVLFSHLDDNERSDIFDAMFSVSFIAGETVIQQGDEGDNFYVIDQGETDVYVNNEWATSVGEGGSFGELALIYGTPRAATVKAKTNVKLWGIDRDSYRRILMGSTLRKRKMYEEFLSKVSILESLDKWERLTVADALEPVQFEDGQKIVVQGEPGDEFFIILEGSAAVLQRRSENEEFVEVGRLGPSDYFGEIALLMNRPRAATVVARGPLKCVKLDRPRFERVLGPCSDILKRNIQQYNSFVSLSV

- residence of photoactivatable-mCherry PKAc at the site of photoactivation after 12.5 s in H295R cells with smAKAP-GFP and RIα-iRFP [1]: 40%
- residence of photoactivatable-mCherry PKAc at the site of photoactivation after 12.5 s in H295R cells with AKAP79-YFP and RIIα-iRFP [2]: 30%
Substance: V5-tagged PKAc-W196R, in H295R adrenal cells (enzyme)
